From patent US20160244499A1

Assays:
[1] = target: T1, γc on human cell lines (Ramos, HH, U937) (human) (UniProt P31785); assay: cell-based or functional assay
T1 sequence (looked up): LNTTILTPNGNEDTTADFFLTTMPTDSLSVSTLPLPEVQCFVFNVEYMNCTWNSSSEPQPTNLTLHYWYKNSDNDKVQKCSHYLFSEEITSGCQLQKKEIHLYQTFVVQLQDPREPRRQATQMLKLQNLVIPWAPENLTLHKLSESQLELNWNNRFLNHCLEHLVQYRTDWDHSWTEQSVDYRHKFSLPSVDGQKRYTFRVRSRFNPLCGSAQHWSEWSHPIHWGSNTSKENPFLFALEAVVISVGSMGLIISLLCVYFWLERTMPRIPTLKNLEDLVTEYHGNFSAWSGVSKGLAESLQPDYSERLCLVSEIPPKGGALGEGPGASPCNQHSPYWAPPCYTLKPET

[2] = target: C-terminally biotinylated IL-13Rα1 ectodomain (human) (UniProt P78552); assay: SPR (Biacore T100), biotinylated IL-13Rα1 on SA chip, cytokine/IL-4Rα complex as analyte
[3] = target: C-terminally biotinylated γc ectodomain (human) (UniProt P31785); assay: SPR, cytokine/IL-4Rα complex on immobilised γc
[4] = target: C-terminally biotinylated γc ectodomain (human) (UniProt P31785); assay: SPR (Biacore T100), biotinylated γc on SA chip, cytokine/IL-4Rα complex as analyte, 1:1 model
[5] = target: C-terminally biotinylated γc ectodomain (human) (UniProt P31785); assay: SPR, comparison of affinities for γc and IL-13Rα1
[6] = target: C-terminally biotinylated IL-13Rα1 ectodomain (human) (UniProt P78552); assay: SPR (Biacore T100), biotinylated IL-13Rα1 on SA chip, cytokine/IL-4Rα complex as analyte, 1:1 model
[7] = target: C-terminally biotinylated IL-13Rα1 ectodomain (human) (UniProt P78552); assay: Table 1, affinity for IL-13Rα1; method for this row not stated

Sequence of wild-type IL-4, free recombinant cytokine (P05112 other isoform, or with tags, fused parts or gaps): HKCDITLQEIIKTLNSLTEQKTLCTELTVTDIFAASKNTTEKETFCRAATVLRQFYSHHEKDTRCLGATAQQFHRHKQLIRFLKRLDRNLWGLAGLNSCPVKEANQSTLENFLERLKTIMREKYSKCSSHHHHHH

wild-type IL-4, free recombinant cytokine (from UniProt P05112 25-153) (ligand)
mean MFI of STAT6 phosphorylation, Ramos cells, 100 pg/ml, 20 minute stimulation [1]: 7.7 MFI | percentage decrease in STAT6 phosphorylation caused by 50 µg/ml of anti-γc, Ramos cells, 100 pg/ml cytokine [1]: 58% | reduction in STAT6 phosphorylation on blocking γc in U937 cells [1]: 44%

RGA/IL-4Rα binary complex (from UniProt P24394 26-202)
Kd [2]: 21 µM | fold faster on-rate (against IL-4) [3]: 6 fold | fold higher affinity (against IL-4/IL-4Rα) [3]: 3700 fold | logs gained in binding affinity (against IL-4) [3]: 4 log | Kd [4]: 0.00089 µM | koff [4]: 0.00059 s⁻¹ | kon [4]: 660000 M⁻¹ s⁻¹ | selectivity for the Type-I receptor complex over the Type-II receptor [5]: 6 log

wild-type IL-4/IL-4Rα binary complex (from UniProt P24394 26-202)
Kd [6]: 4.2 µM | koff [6]: 0.17 s⁻¹ | kon [6]: 41000 M⁻¹ s⁻¹ | Kd [4]: 3.3 µM | koff [4]: 0.31 s⁻¹ | kon [4]: 95000 M⁻¹ s⁻¹

IL-13 (from UniProt P35225 35-146) (ligand)
Kd [7]: 0.03 µM
